The text below walks through data of the nanobody polyreactivity screen of Harvey et al. (2022).

This data set in a line: yeast display, Sf9 membrane polyspecificity reagent, FACS + sequencing; frameworks hold sequencing errors. The method, boiled down: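 Polyreactivity labels are assigned by the sorting gate from which each nanobody was recovered. The gates were low and high (top ~1%), set on anti-HA fluorescence for expression and streptavidin fluorescence for reagent binding. Before sorting, galactose-induced (36–48 hours) yeast display cells were stained for 1 hour at 4 °C with 10% biotinylated, detergent-solubilized Sf9 membrane reagent.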
Turning to “QVQLVESGGGLVQAGGSLRLSCAASGFIFYRNTMGWYRQAPGKEREFVAAIRWRGGSSYYADSVKGRFTISRDNAKNTVYLQMNSLKPEDTAVYYCAADTRPGYSGFEYWGQGTQVTVSS”, the “polyreactivity (PSR sort gate)” value is “high polyreactivity”.

“QVQLVESGGGLVQAGGSLRLSCAASGFIFYRNTMGWYRQAPGKEREFVAAIRWRGGSTYYADSVKGRFTISRDNAKNTFYLQLNSVKPEDTAVYYCAADTRPGYSGFEYWGQGTQVTVSS”: the “polyreactivity (PSR sort gate)” value is “high polyreactivity”.

As to “QVQLVESGGGLVQAGGSLRLSCAASGFIFYRYAMGWSRQAPGKERELVAAISYRGGSTYYADSVKGRFTISRDIAKNTVYLQMNSLKAEDTAFYYCAAPGLYSRLDYWGQGTQVTVSS”, the “polyreactivity (PSR sort gate)” value was “high polyreactivity”.

Take “QVQLVESGGGLVQAGGSLRLSCAASGFIFYRYAMGWYRQAPGKEREFVAVISRSGDRTNYADSVKGRFTISRDNAKNTVYLQMNSLKPEDTAVYYCNTDSRSAHGYWGQGTQVTVSS”: the “polyreactivity (PSR sort gate)” value is on record as “high polyreactivity”.

“QVQLVESGGGLVQAGGSLRLSCAASGFIFYRYAMGWYRQAPGKERELVAAISRGDSTYYADSVKGRFTISRDNAKNTVYLQMNSLKPEDTAVYYCNADRPRYTYRATTYTGRYDYWGQGTQVTVSS”: the “polyreactivity (PSR sort gate)” value is reported as “low polyreactivity”.

As for “QVQLVESGGGLVQAGGSLRLSCAASGFIFYRYAMGWYRQAPGKERELVAAISRSGGSTYYADSVKGRFTISRDNAKNTVYLQMNSLKPEDTAVYYCAADRGSLAPGNDYWGQGNQVTVSS”, the “polyreactivity (PSR sort gate)” value was “high polyreactivity”.

As for “QVQLVESGGGLVQAGGSLRLSCAASGFIFYRYAMGWYRQAPGKERELVAAISSSGGSTYYADSVKGRFTISRDNAKNTVYLQMNSLKPEDTAVYYCNKRPQQYSPGYDYWGQGTQVTVSS”, the “polyreactivity (PSR sort gate)” value was “high polyreactivity”.

In the case of “QVQLVESGGGLVQAGGSLRLSCAASGFIFYRYAMGWYRQAPGKERELVAAISTLGGSTFYADSVKGRFTISRDNAKNTVYLQMISLKPEDTAVYYCATGPLRAYDYWGQGTQVTVSS”, the “polyreactivity (PSR sort gate)” value is reported as “high polyreactivity”.

Take “QVQLVESGGGLVQAGGSLRLSCAASGFIFYRYAMGWYRQAPGKERELVASITKRGGSTRYADSVKGRFTISRDNAKNTVYLQMNSLKPEDTAVYYCAKVPYSTAFDYWGQGTQVTVSS”: the “polyreactivity (PSR sort gate)” value was “high polyreactivity”.

On to “QVQLVESGGGLVQAGGSLRLSCAASGFIFYRYAMGWYRQAPGKESELVAAISRSGGSKYYADSVKGRFTISRDLANNTVYLQLNSLKPEDTAVYYCATPVHRKLYLVNYWGQGTQVTVSS”, for which the “polyreactivity (PSR sort gate)” value is “low polyreactivity”.

With “QVQLVESGGGLVQAGGSLRLSCAASGFIFYSNAMGWYRQAPGKDRELVASITGDGGTTYYADSVKGRFTISRDKAKNTVYLQMNSLKPEATAVYYCAKDYIYRGYYTDFRYEDYDYWGPGTQVTVSS”, the “polyreactivity (PSR sort gate)” value is listed as “low polyreactivity”.

Take “QVQLVESGGGLVQAGGSLRLSCAASGFIFYSNAMGWYRQAPGKERELVAAIRSTGSTSYADSVKGRFTISRDNAKNTVYLQMNSLKPEDTAVYYCAKVRYWRGYDYWGQGTQVTVSS”: the “polyreactivity (PSR sort gate)” value is given as “high polyreactivity”.

On to “QVQLVESGGGLVQAGGSLRLSCAASGFIFYSNAMGWYRQEPGKERELVAAITSGGGSTYYADSVKGRFTISRDNAKNTVYLQMNSLKPEDTAVYYCAVSIGRYPYRYGYWGQGTQVTVSS”, for which the “polyreactivity (PSR sort gate)” value is on record as “high polyreactivity”.

As to “QVQLVESGGGLVQAGGSLRLSCAASGFIFYSYAMGWNRQAPGKERELVADISRSGSTNYADSVKGRFTISRDNAKNTVYLQMNSLKPEDTAVYYCNKGYHSWSRLSQFGWSYDYWGQGTQVTVSS”, the “polyreactivity (PSR sort gate)” value is “high polyreactivity”.

For “QVQLVESGGGLVQAGGSLRLSCAASGFIFYSYAMGWYRQAPGKEREFVASISGRTGSTYYADSVKGRFTISRDNAKNTVYLQMNSLKPEDTAVYYCNARIVHSFRYDYWGQGTQVTVSS”, the “polyreactivity (PSR sort gate)” value is “low polyreactivity”.

As to “QVQLVESGGGLVQAGGSLRLSCAASGFIFYSYAMGWYRQAPGKERELVATITSGGSTNYADSVKGRFTISRDNAKNTVYLQMNSLKPEDTAVYYCAARYYPFWARRNRYDYWGQGTQVTVSS”, the “polyreactivity (PSR sort gate)” value is “high polyreactivity”.

On to “QVQLVESGGGLVQAGGSLRLSCAASGFIFYSYDMGWYRQAPGKERELVAANDSRGVNTYYADSVKGRFTISRDNAKNTVYLQMNSLKPEDTAVYYCAAQASSQIDYYGGHYGYWGQGTQVTVSS”, for which the “polyreactivity (PSR sort gate)” value was “low polyreactivity”.

Regarding “QVQLVESGGGLVQAGGSLRLSCAASGFIFYVYAMGWYRQAPGKERELVAAISADGGITYYADSVKGRFTISRDNAKNSVYFQMNSLKPEDTAVYYCNTLGDQDAYAGFRLDYWGQGTQVTVSS”, the “polyreactivity (PSR sort gate)” value is “low polyreactivity”.

For the sequence “QVQLVESGGGLVQAGGSLRLSCAASGFIFYYDAMGWYIQAPGKERELVARIYSGRSTYYADSVKGRFTISRDNAKNTVYLQMNSLKPEDTAVYYCNATRLVWFSQGYDYWGQGTQVTVSS”, the “polyreactivity (PSR sort gate)” value is “high polyreactivity”.

With “QVQLVESGGGLVQAGGSLRLSCAASGFIFYYNAMGWYRQAPGKERELVAAITRSGGSTYYADSVKGRFTISRDNAKNTVYLQMNSLKPEDTAVYYCAARVYPYHWSYYYWGQGTQVTVSS”, the “polyreactivity (PSR sort gate)” value was “high polyreactivity”.

For the sequence “QVQLVESGGGLVQAGGSLRLSCAASGFIFYYNAMGWYRQAPGKERELVARISSGSGTYYADSVKGRFTISRDNAKNTVYLQMNSLKPEDTAVYYCAARYPRGAMYYWGQGTQVTVSS”, the “polyreactivity (PSR sort gate)” value is given as “low polyreactivity”.

Regarding “QVQLVESGGGLVQAGGSLRLSCAASGFIFYYYAMGWYRQAPGKERELVAAISRSGGSTYYADSVKGRFTISRDNAKNTVYLQMNSLKPEDTAVYYCAVYGYYALTHWEYDYWGQGTQVTVSS”, the “polyreactivity (PSR sort gate)” value is reported as “high polyreactivity”.

As for “QVQLVESGGGLVQAGGSLRLSCAASGFIFYYYAMGWYRQAPGKERELVAAITSSGGSTYYADSVKGRFTISRDNAKNTVYLQMISLKPEDTAVYYCNALQYSRMDYWGQATQVTVSS”, the “polyreactivity (PSR sort gate)” value was “high polyreactivity”.

In the case of “QVQLVESGGGLVQAGGSLRLSCAASGFIFYYYAMGWYRQAPGKERELVASISSDGSTYYADSVKGRFTISRDNAKNTVYLQMNSLKPEDTAVYYCNADRYYPDDLSDGVGTYDYWGQGTQVTVSS”, the “polyreactivity (PSR sort gate)” value is on record as “low polyreactivity”.

On to “QVQLVESGGGLVQAGGSLRLSCAASGFIIDCYAMGRYRQAPGKERELVAVISQRGSNTYYADSVKGRFTISRDHAKNTVYLQMNSLKPEDTAVYYCAARYKQGDSTGGRMNYWGQGTQVTVSS”, for which the “polyreactivity (PSR sort gate)” value is listed as “high polyreactivity”.

Regarding “QVQLVESGGGLVQAGGSLRLSCAASGFIIDTYPMGCYRQAPGKERELVAAITRSGGSTYYADSVKGRFTISRDNAKNTVYLQMNSLKPEDTAVYYCAARQRYTRYDYWGQGTQVTVSW”, the “polyreactivity (PSR sort gate)” value is recorded as “high polyreactivity”.

As to “QVQLVESGGGLVQAGGSLRLSCAASGFIIDYYAKGWYRQAPGKERELVASITDSTTYYADSVKGRFTISRDNAKNTVYLQMNSLKPEDTAVYYCNARGGYAYVLYDYWGQGTQVTVSS”, the “polyreactivity (PSR sort gate)” value is “low polyreactivity”.

As for “QVQLVESGGGLVQAGGSLRLSCAASGFIIFDYAMGWYRQAPGKESELVAAITSGGSTDYADSVKGRFTLSRDNAKNTVYLQMNSLKPEDTAVYYCAAVYGSVSRYDYWGQGTQVTVSA”, the “polyreactivity (PSR sort gate)” value was “low polyreactivity”.

Regarding “QVQLVESGGGLVQAGGSLRLSCAASGFIIKANAMGWYRQAPGKERELVASITFGGDSTYYADSVKGRFTISRDNAKNTVYLQMNSLKPEDTAVYYCNTRRRSYRTYYYWGQGTQVTVLS”, the “polyreactivity (PSR sort gate)” value is reported as “low polyreactivity”.

For the sequence “QVQLVESGGGLVQAGGSLRLSCAASGFIIKGNVMGWYRQAPGKERELVAAITRRGSTYYADSVKGRFTISRDNAKNTVYLQMNSLKPEDTAVYYCAARPWKAIEKVDGSGGGDYWGQGTQVTVSS”, the “polyreactivity (PSR sort gate)” value is recorded as “low polyreactivity”.

As for “QVQLVESGGGLVQAGGSLRLSCAASGFIIKSYAMGWYRQAPGKERELVAAISYTGSITYYADSVKGRFTISRDNAKNTVYLQMNSLKPEDTAVYYCAVGRYADQHDYWGQGTQVTVSS”, the “polyreactivity (PSR sort gate)” value is reported as “high polyreactivity”.

“QVQLVESGGGLVQAGGSLRLSCAASGFIIPGYAMGWYRQAPGKERELVAAISSGTSTYYADSVKGRFTISRDNAKNTVYLQMNSLKPEATAVYYCAADTWYRFGYWGQGTQVTVSS”: the “polyreactivity (PSR sort gate)” value was “low polyreactivity”.

Take “QVQLVESGGGLVQAGGSLRLSCAASGFIIPGYAMGWYRQAPGKERELVAAISSGTSTYYEDSVKGRFTISRDNAKNTVYLQMNSLKPEATAVYDCAAETWYRFGYWGQGTQVTVSS”: the “polyreactivity (PSR sort gate)” value was “low polyreactivity”.

Consider “QVQLVESGGGLVQAGGSLRLSCAASGFIIPYYAMGWYRQAPGKERELVAAISRSGGSTYYADSVKGRFTISRDNAKNTVYLQMHSLKPEDTAVYYCATRKGGTLYNYWGQGTQVTVSS”, for which the “polyreactivity (PSR sort gate)” value is on record as “high polyreactivity”.

Turning to “QVQLVESGGGLVQAGGSLRLSCAASGFIIQGNALGWYRQAPGTERELVAAISSSVSTYYADSVKGRFTISRDNAKNTVYLQMNSLKPEDNAVYDCNAGFPLSLWLGDYWGQGTLVTVSS”, the “polyreactivity (PSR sort gate)” value is reported as “low polyreactivity”.

Regarding “QVQLVESGGGLVQAGGSLRLSCAASGFIIRGNVMGWSRQAPGKERELVAAISGRGGSTYYADSVKGRFTISRDNAKNTVYLQRNILKPEDTGVYYCNAAGLYNSRLDYWGQGTQVTVSS”, the “polyreactivity (PSR sort gate)” value is recorded as “high polyreactivity”.

For the sequence “QVQLVESGGGLVQAGGSLRLSCAASGFIITYYAMGWYRQATGKDRELVAVISWSGGTTYYAESVKGRFTISRDNATNTVYLQMNSLKPEDTAVYYCAAYRYFRPGDYWGQGTQVTVSS”, the “polyreactivity (PSR sort gate)” value was “low polyreactivity”.

Consider “QVQLVESGGGLVQAGGSLRLSCAASGFIIYFNAMGWYRQPRGKERELVASITSGASTNYADSVKGRFTISRDNAKNTVYLQMNSLKPEDTAVYYCAAAYFWLDPYVEYDYWGQGTQVTVSS”, for which the “polyreactivity (PSR sort gate)” value was “low polyreactivity”.

On to “QVQLVESGGGLVQAGGSLRLSCAASGFILDTYGMGWYRQAPGKERELVAAISQSDVSTYYADSVKGRFTISRDNAKNTVYLQMNSLKPEDTAVYYCNAGAGKRGYDYWGQGTQVTVSS”, for which the “polyreactivity (PSR sort gate)” value is listed as “low polyreactivity”.

On to “QVQLVESGGGLVQAGGSLRLSCAASGFILDWYAMGWYRQAPGKERELVAAISYSGGSTYYADSVKGRFTISRDNAKNTVYLQMNSLKPEDTAVYYCNADIWYGDMDYWGQGTQVTVSS”, for which the “polyreactivity (PSR sort gate)” value is given as “high polyreactivity”.

For “QVQLVESGGGLVQAGGSLRLSCAASGFILDYNAMGWYRQAPGKERELVAAITNGGITYYADSVKGRFTISRDNAQNTVYLQMNSLKPEDTAVYYCAADNDTDHSSATYGYDYWGQGTQVTVSS”, the “polyreactivity (PSR sort gate)” value was “low polyreactivity”.
